Read-outs that look alike come from different tables or passages of the source.

As a reminder, the Kd is the equilibrium constant for the complex coming apart.

What all share (test): EMSA
Background: Mobility shift assays separate free from complexed probe on a gel.

The target of data set [1] is T1, RarA (Bacillus subtilis, UniProt O34528 1-421).
T1 sequence: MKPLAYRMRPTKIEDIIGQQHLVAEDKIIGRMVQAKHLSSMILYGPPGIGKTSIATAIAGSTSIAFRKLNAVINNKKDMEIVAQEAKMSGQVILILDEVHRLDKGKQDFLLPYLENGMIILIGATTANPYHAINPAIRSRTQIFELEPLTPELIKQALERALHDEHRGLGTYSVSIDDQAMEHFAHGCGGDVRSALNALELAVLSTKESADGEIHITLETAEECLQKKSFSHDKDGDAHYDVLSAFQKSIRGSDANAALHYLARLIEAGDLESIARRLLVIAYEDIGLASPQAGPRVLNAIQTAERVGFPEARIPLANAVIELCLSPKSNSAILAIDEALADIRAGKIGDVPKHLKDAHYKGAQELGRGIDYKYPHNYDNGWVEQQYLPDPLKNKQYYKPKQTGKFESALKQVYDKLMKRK

Data set [2] has as its target T2, RarA;SsbBA chimera (SsbB*) (Bacillus subtilis;Bacillus subtilis, UniProt O34528;C0SPB6 1-421;1-113+P37455:164-172, |internal_change).
T2 sequence 1: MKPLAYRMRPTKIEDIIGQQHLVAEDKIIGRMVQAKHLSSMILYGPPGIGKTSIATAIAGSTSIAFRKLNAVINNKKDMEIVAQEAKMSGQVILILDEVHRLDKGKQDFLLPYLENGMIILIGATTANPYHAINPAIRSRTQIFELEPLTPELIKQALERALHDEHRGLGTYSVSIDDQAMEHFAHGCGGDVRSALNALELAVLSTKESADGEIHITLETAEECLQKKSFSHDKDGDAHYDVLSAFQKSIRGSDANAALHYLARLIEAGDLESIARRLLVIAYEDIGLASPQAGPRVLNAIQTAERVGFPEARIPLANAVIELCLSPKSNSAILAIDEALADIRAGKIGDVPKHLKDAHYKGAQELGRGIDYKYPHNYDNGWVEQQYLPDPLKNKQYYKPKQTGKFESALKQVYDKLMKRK
T2 sequence 2: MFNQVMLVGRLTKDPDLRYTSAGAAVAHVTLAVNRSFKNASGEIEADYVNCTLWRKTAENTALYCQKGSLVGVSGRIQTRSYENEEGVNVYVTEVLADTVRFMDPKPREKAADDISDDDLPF

For data set [3], the target named is T3, SsbB (Bacillus subtilis, UniProt C0SPB6 1-113).
T3 sequence: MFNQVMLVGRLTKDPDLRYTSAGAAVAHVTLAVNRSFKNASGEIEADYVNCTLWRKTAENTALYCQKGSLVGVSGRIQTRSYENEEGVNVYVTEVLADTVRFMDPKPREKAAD

The target of data set [4] is T4, RarA;SsbA (Bacillus subtilis;Bacillus subtilis, UniProt O34528;P37455 1-421;1-172, |).
T4 sequence 1: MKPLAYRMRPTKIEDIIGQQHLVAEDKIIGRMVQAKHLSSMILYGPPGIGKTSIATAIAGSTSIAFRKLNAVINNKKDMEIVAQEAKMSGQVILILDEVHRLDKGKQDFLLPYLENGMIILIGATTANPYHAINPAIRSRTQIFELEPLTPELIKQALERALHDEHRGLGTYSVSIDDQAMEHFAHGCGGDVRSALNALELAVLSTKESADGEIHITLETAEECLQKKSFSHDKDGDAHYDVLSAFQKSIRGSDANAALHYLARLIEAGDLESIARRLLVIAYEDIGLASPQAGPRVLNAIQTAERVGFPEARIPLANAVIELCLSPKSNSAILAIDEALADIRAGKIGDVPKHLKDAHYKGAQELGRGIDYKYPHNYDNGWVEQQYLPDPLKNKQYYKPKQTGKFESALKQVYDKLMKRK
T4 sequence 2: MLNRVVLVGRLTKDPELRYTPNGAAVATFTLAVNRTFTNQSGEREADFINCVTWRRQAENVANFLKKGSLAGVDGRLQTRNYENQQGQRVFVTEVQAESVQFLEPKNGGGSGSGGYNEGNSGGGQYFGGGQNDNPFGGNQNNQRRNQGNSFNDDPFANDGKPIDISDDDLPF

The target of data set [5] is T5, RarA K51A;SsbA (Bacillus subtilis;Bacillus subtilis, UniProt O34528;P37455 1-421;1-172, K51A|).
T5 sequence 1: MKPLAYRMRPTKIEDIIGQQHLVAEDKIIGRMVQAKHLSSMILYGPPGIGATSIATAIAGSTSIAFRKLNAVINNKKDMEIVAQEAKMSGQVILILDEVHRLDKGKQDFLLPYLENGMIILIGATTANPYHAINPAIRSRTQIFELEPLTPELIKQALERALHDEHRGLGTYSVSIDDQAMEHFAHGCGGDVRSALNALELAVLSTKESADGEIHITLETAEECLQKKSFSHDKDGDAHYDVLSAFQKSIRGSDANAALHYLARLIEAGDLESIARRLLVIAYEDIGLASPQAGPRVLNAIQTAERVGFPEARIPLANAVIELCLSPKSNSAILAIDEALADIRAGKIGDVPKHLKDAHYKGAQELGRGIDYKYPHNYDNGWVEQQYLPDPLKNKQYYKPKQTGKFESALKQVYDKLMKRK
T5 sequence 2: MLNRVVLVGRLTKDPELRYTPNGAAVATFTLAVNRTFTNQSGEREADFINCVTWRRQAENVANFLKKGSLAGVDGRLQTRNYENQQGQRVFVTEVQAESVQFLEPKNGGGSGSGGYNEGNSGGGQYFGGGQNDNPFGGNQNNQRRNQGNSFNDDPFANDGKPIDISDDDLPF

Data set [6] addresses T6, RarA;PriA (Bacillus subtilis;Bacillus subtilis, UniProt O34528;P94461 1-421;1-805, |).
T6 sequence 1: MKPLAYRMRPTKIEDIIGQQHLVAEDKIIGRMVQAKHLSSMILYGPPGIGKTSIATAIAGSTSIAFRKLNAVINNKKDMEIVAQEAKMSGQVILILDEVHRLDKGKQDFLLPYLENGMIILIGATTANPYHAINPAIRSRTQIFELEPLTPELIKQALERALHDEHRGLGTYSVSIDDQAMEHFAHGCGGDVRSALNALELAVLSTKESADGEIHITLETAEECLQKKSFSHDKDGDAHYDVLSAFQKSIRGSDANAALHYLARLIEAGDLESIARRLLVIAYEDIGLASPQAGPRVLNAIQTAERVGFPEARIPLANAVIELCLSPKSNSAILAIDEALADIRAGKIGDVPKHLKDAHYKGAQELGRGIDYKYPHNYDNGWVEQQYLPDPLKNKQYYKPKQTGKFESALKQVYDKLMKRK
T6 sequence 2: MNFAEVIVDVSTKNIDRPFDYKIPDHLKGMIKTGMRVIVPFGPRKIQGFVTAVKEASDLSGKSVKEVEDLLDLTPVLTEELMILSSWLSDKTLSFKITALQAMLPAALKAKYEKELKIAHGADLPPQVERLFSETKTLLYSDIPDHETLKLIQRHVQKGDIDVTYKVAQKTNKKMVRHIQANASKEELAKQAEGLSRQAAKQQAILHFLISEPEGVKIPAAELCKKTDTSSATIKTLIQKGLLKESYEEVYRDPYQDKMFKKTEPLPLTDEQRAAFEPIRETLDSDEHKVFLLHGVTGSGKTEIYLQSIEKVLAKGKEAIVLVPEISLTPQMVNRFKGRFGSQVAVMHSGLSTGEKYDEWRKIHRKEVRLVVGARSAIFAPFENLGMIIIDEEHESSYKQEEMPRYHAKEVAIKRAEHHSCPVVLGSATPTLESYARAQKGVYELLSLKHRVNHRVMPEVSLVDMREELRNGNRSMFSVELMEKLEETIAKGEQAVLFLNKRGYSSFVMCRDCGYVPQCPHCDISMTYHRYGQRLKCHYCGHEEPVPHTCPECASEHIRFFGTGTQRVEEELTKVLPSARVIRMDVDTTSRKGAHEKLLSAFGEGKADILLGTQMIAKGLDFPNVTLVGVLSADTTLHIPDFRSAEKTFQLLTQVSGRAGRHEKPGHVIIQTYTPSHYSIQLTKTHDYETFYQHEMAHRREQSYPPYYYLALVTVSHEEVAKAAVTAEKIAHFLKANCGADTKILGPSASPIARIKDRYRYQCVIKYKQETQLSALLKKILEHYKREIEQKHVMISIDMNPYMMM

For data set [7], the target named is T7, PriA (Bacillus subtilis, UniProt P94461 1-805).
T7 sequence: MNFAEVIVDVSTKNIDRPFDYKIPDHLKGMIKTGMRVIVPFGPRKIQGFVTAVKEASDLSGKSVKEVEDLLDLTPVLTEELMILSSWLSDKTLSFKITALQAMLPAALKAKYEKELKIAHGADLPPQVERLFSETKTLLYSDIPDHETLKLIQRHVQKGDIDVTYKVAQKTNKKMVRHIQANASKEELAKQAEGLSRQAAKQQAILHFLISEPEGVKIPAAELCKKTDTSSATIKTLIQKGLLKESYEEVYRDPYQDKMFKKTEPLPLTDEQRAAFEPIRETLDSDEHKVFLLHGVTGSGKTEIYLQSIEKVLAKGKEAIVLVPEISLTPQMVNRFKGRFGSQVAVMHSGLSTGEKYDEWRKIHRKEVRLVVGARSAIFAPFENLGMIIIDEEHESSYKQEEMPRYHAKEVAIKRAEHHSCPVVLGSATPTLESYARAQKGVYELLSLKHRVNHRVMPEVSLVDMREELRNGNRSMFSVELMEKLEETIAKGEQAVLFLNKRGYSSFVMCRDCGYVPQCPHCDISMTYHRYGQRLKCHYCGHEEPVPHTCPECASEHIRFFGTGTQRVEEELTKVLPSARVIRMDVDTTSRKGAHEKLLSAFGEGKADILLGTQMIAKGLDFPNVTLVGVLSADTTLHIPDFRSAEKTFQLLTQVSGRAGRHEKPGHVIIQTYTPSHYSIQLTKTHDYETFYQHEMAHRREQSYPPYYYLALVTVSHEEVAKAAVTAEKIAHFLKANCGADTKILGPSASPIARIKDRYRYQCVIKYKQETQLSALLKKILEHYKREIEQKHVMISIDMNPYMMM

Data set [8] concerns the target T8, SsbA (Bacillus subtilis, UniProt P37455 1-172).
T8 sequence: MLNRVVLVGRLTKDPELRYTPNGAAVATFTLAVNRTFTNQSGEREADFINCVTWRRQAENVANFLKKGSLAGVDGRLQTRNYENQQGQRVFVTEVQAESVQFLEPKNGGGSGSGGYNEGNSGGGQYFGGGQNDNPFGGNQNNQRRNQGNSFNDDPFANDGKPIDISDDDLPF

The target in data set [9] is T8, SsbA. This is another data set of the same source.

B1: 91-nt ssDNA (F1) (ssDNA)
DNA: TATAAAAAAAGCCAAGCTTGCATGCCTGCAGGTCGACTCTAGAGGATCCCCGGGTACCGAGCTCGAATTCACTGGCCGTCGTTTTACAACG
In the case of B1, the Kd is about 12 nM in [1] and about 6 nM in data set [3]. The binding result in data set [2], in data set [4] and in data set [5] was “binds” throughout.

B2: replicated fork (F1/F2/F3) (dsDNA)
DNA 1: TATAAAAAAAGCCAAGCTTGCATGCCTGCAGGTCGACTCTAGAGGATCCCCGGGTACCGAGCTCGAATTCACTGGCCGTCGTTTTACAACG
DNA 2: AATTCGTTGTAAAACGACGGCCAGTGAATTCGAGCTCGGTACCCGCCAGCCACAGTCAGACACACACACACTACACACAAAAAAAAAAA
DNA 3: TTTTTTTTTTTGTGTGTAGTGTGTGTGTGTCTGACTGTGGCTGG
On to B2, for which the binding result in data set [6], in data set [8] and in data set [4] was “binds” throughout. For the same molecule, the Kd in [1] is about 19 nM; in data set [7], about 3 nM.

B3: fork DNA (F1/F2) (dsDNA)
DNA 1: TATAAAAAAAGCCAAGCTTGCATGCCTGCAGGTCGACTCTAGAGGATCCCCGGGTACCGAGCTCGAATTCACTGGCCGTCGTTTTACAACG
DNA 2: AATTCGTTGTAAAACGACGGCCAGTGAATTCGAGCTCGGTACCCGCCAGCCACAGTCAGACACACACACACTACACACAAAAAAAAAAA
B3 showed a Kd in [1] of about 12 nM. In addition, the binding result in [9] and in data set [4] was “binds” in each case.
